Reference: the Immune Epitope Database (IEDB)

What was measured:
HLA-A*01:01 = experiment: IEDB peptide-MHC binding, purified MHC/direct/fluorescence; filed as Kd, often an IC50 or EC50 that approximates it; ≥ and ≤ were set here for values at or beyond the usual limits of such assays
HLA-A*11:01 = experiment: as above
HLA-B*57:01 = experiment: as above
HLA-B*18:01 = experiment: as above; settings: source organism: Marburg virus - Musoke, Kenya, 1980
HLA-B*07:02 = experiment: as above
HLA-B*27:05 = experiment: as above
HLA-A*31:01 = experiment: as above
HLA-B*15:09 = experiment: as above; settings: source organism: Ravn virus - Ravn, Kenya, 1987
HLA-A*69:01 = experiment: as above
HLA-A*68:02 = experiment: as above
HLA-B*73:01 = experiment: as above; settings: source organism: Marburg virus - Musoke, Kenya, 1980
HLA-B*58:01 = experiment: as above
HLA-B*08:02 = experiment: as above
HLA-B*48:01 = experiment: as above
HLA-A*26:02 [1] = experiment: IEDB peptide-MHC binding, purified MHC/competitive/fluorescence; filed as Kd, often an IC50 or EC50 that approximates it; ≥ and ≤ were set here for values at or beyond the usual limits of such assays; settings: source organism: Orthomarburgvirus marburgense
HLA-B*39:01 = experiment: as above; settings: source organism: Orthomarburgvirus marburgense
HLA-B*15:01 [2] = experiment: as above; settings: source organism: Orthomarburgvirus marburgense
HLA-A*26:03 = experiment: as above; settings: source organism: Orthomarburgvirus marburgense
HLA-A*26:01 [3] = experiment: as above; settings: source organism: Orthomarburgvirus marburgense
HLA-B*15:17 [4] = experiment: as above; settings: source organism: Orthomarburgvirus marburgense
HLA-A*26:02 [5] = experiment: IEDB peptide-MHC binding, purified MHC/direct/fluorescence; filed as Kd, often an IC50 or EC50 that approximates it; ≥ and ≤ were set here for values at or beyond the usual limits of such assays; settings: source organism: Mycobacterium tuberculosis str. Haarlem
HLA-B*08:03 = experiment: as above; settings: source organism: Mycobacterium tuberculosis str. Haarlem
HLA-B*40:01 = experiment: as above
HLA-B*15:01 [6] = experiment: as above
HLA-B*46:01 = experiment: as above; settings: source organism: Mycobacterium tuberculosis
HLA-B*08:01 = experiment: as above
HLA-B*15:17 [7] = experiment: as above; settings: source organism: Mycobacterium tuberculosis
HLA-A*02:01 [8] = experiment: IEDB peptide-MHC binding, purified MHC/competitive/fluorescence; filed as Kd, often an IC50 or EC50 that approximates it; ≥ and ≤ were set here for values at or beyond the usual limits of such assays; settings: source organism: Mycobacterium tuberculosis variant bovis BCG str. Pasteur 1173P2
HLA-A*02:01 [9] = experiment: IEDB peptide-MHC binding, purified MHC/direct/fluorescence; filed as Kd, often an IC50 or EC50 that approximates it; ≥ and ≤ were set here for values at or beyond the usual limits of such assays
HLA-A*24:03 = experiment: as above
HLA-A*26:01 [10] = experiment: as above
HLA-A*03:01 = experiment: as above
HLA-A*02:50 = experiment: IEDB peptide-MHC binding, purified MHC/competitive/fluorescence; filed as Kd, often an IC50 or EC50 that approximates it; ≥ and ≤ were set here for values at or beyond the usual limits of such assays
HLA-B*44:02 = experiment: IEDB peptide-MHC binding, purified MHC/direct/fluorescence; filed as Kd, often an IC50 or EC50 that approximates it; ≥ and ≤ were set here for values at or beyond the usual limits of such assays; settings: source organism: Yersinia pestis
HLA-A*02:11 = experiment: as above; settings: source organism: Burkholderia mallei ATCC 23344
HLA-C*04:01 = experiment: as above
HLA-B*15:02 = experiment: IEDB peptide-MHC binding, purified MHC/competitive/fluorescence; filed as Kd, often an IC50 or EC50 that approximates it; ≥ and ≤ were set here for values at or beyond the usual limits of such assays
HLA-A*23:01 = experiment: as above; settings: source organism: Cryptosporidium parvum Iowa II
HLA-B*35:01 = experiment: IEDB peptide-MHC binding, purified MHC/direct/fluorescence; filed as Kd, often an IC50 or EC50 that approximates it; ≥ and ≤ were set here for values at or beyond the usual limits of such assays; settings: source organism: Corynebacterium glutamicum
[11] = source organism: Marburg virus - Musoke, Kenya, 1980
[12] = source organism: Mycobacterium tuberculosis
[13] = source organism: Mycobacterium tuberculosis str. Haarlem
[14] = source organism: Haemophilus influenzae
[15] = source organism: Yersinia pestis
[16] = source organism: Burkholderia mallei
[17] = source organism: Corynebacterium glutamicum
[18] = source organism: Corynebacterium efficiens

ARHGEYAPF
Kd (HLA-A*01:01; [11]): ≥ 20 µM
Kd (HLA-A*11:01; [11]): ≥ 20 µM
Kd (HLA-B*57:01; [11]): ≥ 20 µM
Kd (HLA-B*18:01): ≥ 20 µM
Kd (HLA-B*07:02; [11]): ≥ 20 µM
Kd (HLA-B*27:05; [11]): 0.168 µM
Kd (HLA-A*31:01; [11]): ≥ 20 µM
Kd (HLA-B*15:09): ≥ 20 µM
Kd (HLA-A*69:01; [11]): ≥ 20 µM
Kd (HLA-A*68:02; [11]): ≥ 20 µM
Kd (HLA-B*73:01): ≥ 20 µM
Kd (HLA-B*58:01; [11]): ≥ 20 µM
Kd (HLA-B*08:02; source organism: Ravn virus - Ravn, Kenya, 1987): ≥ 20 µM
Kd (HLA-B*48:01; [11]): ≥ 20 µM
Kd (HLA-A*26:02 [1]): 0.738 µM
Kd (HLA-B*39:01): 1.09 µM
Kd (HLA-B*15:01 [2]): 3.34 µM
Kd (HLA-A*26:03): ≥ 20 µM
Kd (HLA-A*26:01 [3]): 4 µM
Kd (HLA-B*15:17 [4]): ≥ 20 µM

KLVGIELPK
Kd (HLA-A*26:02 [5]): ≥ 20 µM
Kd (HLA-A*01:01; [12]): ≥ 20 µM
Kd (HLA-A*11:01; [12]): 0.0733 µM
Kd (HLA-B*08:03): ≥ 20 µM
Kd (HLA-B*40:01; [12]): ≥ 20 µM
Kd (HLA-B*57:01; [12]): ≥ 20 µM
Kd (HLA-B*07:02; [12]): ≥ 20 µM
Kd (HLA-B*27:05; [12]): ≥ 20 µM
Kd (HLA-A*31:01; [12]): 6.82 µM
Kd (HLA-B*15:01 [6]; [12]): ≥ 20 µM
Kd (HLA-B*46:01): ≥ 20 µM
Kd (HLA-A*69:01; [12]): ≥ 20 µM
Kd (HLA-B*08:01; [13]): ≥ 20 µM
Kd (HLA-A*68:02; [12]): ≥ 20 µM
Kd (HLA-B*58:01; [12]): ≥ 20 µM
Kd (HLA-B*15:17 [7]): ≥ 20 µM
Kd (HLA-B*08:02; [13]): ≥ 20 µM
Kd (HLA-B*48:01; [12]): ≥ 20 µM
Kd (HLA-A*02:01 [8]): ≥ 20 µM

LIFPAFFLC
Kd (HLA-A*01:01; [14]): 5.24 µM
Kd (HLA-A*02:01 [9]; [14]): 5.1 µM
Kd (HLA-A*11:01; [14]): ≥ 20 µM
Kd (HLA-B*40:01; [14]): ≥ 20 µM
Kd (HLA-B*07:02; [14]): ≥ 20 µM
Kd (HLA-B*27:05; [14]): ≥ 20 µM
Kd (HLA-A*31:01; [14]): ≥ 20 µM
Kd (HLA-B*15:01 [6]; [14]): ≥ 20 µM
Kd (HLA-A*24:03; [14]): ≥ 20 µM
Kd (HLA-A*69:01; [14]): ≥ 20 µM
Kd (HLA-B*08:01; [14]): ≥ 20 µM
Kd (HLA-B*58:01; [14]): ≥ 10 µM
Kd (HLA-A*26:01 [10]; [14]): ≥ 20 µM
Kd (HLA-A*03:01; [14]): ≥ 20 µM
Kd (HLA-A*02:50; source organism: Haemophilus influenzae PittAA): 0.012 µM

LLIDDSFSS
Kd (HLA-A*01:01; [15]): ≥ 20 µM
Kd (HLA-A*02:01 [9]; [15]): 0.65 µM
Kd (HLA-A*11:01; [15]): ≥ 20 µM
Kd (HLA-B*40:01; [15]): ≥ 20 µM
Kd (HLA-B*07:02; [15]): ≥ 20 µM
Kd (HLA-B*27:05; [15]): ≥ 20 µM
Kd (HLA-A*31:01; [15]): ≥ 20 µM
Kd (HLA-B*15:01 [6]; [15]): 1.89 µM
Kd (HLA-A*24:03; [15]): ≥ 20 µM
Kd (HLA-A*69:01; [15]): ≥ 20 µM
Kd (HLA-B*08:01; [15]): ≥ 20 µM
Kd (HLA-B*58:01; [15]): ≥ 20 µM
Kd (HLA-A*26:01 [10]; [15]): ≥ 20 µM
Kd (HLA-A*03:01; [15]): ≥ 20 µM
Kd (HLA-B*44:02): ≥ 20 µM
Kd (HLA-A*02:50; source organism: Yersinia pestis Nepal516): 0.0025 µM

MQQAYQCIV
Kd (HLA-A*02:01 [9]; [16]): 0.0865 µM
Kd (HLA-A*02:11): 0.028 µM
Kd (HLA-A*69:01; [16]): 9.04 µM
Kd (HLA-A*02:50; source organism: Burkholderia mallei NCTC 10229): 0.0116 µM

MYTRNLLWL
Kd (HLA-A*24:03; source organism: Escherichia coli): 0.0018 µM
Kd (HLA-C*04:01; source organism: Escherichia coli HS): ≥ 20 µM

SLYDIITVM
Kd (HLA-B*15:02; source organism: Listeria monocytogenes): ≥ 20 µM

TFMGMNVQF
Kd (HLA-C*04:01; source organism: Cryptosporidium parvum Iowa II): ≥ 20 µM
Kd (HLA-A*23:01): 0.0012 µM

VQLQEYDTY
Kd (HLA-A*01:01; [17]): ≥ 5 µM
Kd (HLA-A*02:01 [9]; [18]): ≥ 20 µM
Kd (HLA-A*11:01; [18]): ≥ 20 µM
Kd (HLA-B*35:01): 0.383 µM
Kd (HLA-B*40:01; [18]): ≥ 20 µM
Kd (HLA-B*07:02; [18]): ≥ 20 µM
Kd (HLA-B*27:05; [18]): ≥ 20 µM
Kd (HLA-A*31:01; [18]): ≥ 20 µM
Kd (HLA-B*15:01 [6]; [17]): 0.199 µM
Kd (HLA-A*69:01; [18]): ≥ 20 µM
Kd (HLA-B*08:01; [18]): ≥ 20 µM
Kd (HLA-B*58:01; [18]): ≥ 20 µM
Kd (HLA-A*26:01 [10]; [18]): ≥ 20 µM
Kd (HLA-A*03:01; [18]): ≥ 20 µM
Kd (HLA-B*15:02; [18]): ≥ 20 µM
